Measured values as given in patent publication US20240117018A1.

Legend:
Experiment in all cases: cell-based or functional assay
[1] = biological target: HIV-1 Env of pseudovirus ZM233M.PB6 (HIV-1)
[2] = biological target: HIV-1 Env of pseudovirus Ce703010054_2A2 (HIV-1)
[3] = biological target: HIV-1 Env of pseudovirus HIV-0013095-2.11 (HIV-1)
[4] = biological target: HIV-1 Env of pseudovirus CNE21 (HIV-1)
[5] = biological target: HIV-1 Env of pseudovirus MS208.A1 (HIV-1)
[6] = biological target: HIV-1 Env of pseudovirus CNE20 (HIV-1)
[7] = biological target: HIV-1 Env of pseudovirus Q259.d2.17 (HIV-1)
[8] = biological target: HIV-1 Env of pseudovirus CAAN5342.A2 (HIV-1)
[9] = biological target: HIV-1 Env of pseudovirus THRO4156.18 (HIV-1)
[10] = biological target: HIV-1 Env of pseudovirus WEAU_d15_410_787 (HIV-1)
[11] = biological target: HIV-1 Env of pseudovirus 249M B10 (HIV-1)
[12] = biological target: HIV-1 Env of pseudovirus QH0692.42 (HIV-1)
[13] = biological target: HIV-1 Env of pseudovirus ZM247v1(Rev-) (HIV-1)
[14] = biological target: HIV-1 Env of pseudovirus SC422661.8 (HIV-1)
[15] = biological target: HIV-1 Env of pseudovirus 6535.3 (HIV-1)
[16] = biological target: HIV-1 Env of pseudovirus CAP210.2.00.E8 (HIV-1)
[17] = biological target: HIV-1 Env of pseudovirus SC05_8C11_2344 (HIV-1)
[18] = biological target: HIV-1 Env of pseudovirus ZM197M.PB7 (HIV-1)
[19] = biological target: HIV-1 Env of pseudovirus 9004SS_A3_4 (HIV-1)
[20] = biological target: HIV-1 Env of pseudovirus 1006_11_C3_1601 (HIV-1)
[21] = biological target: HIV-1 Env of pseudovirus Du156.12 (HIV-1)
[22] = biological target: HIV-1 Env of pseudovirus Q23.17 (HIV-1)
[23] = biological target: HIV-1 Env of pseudovirus ZM135M.PL10a (HIV-1)
[24] = biological target: HIV-1 Env of pseudovirus 62357_14_D3_4589 (HIV-1)
[25] = biological target: HIV-1 Env of pseudovirus CNE19 (HIV-1)
[26] = biological target: HIV-1 Env of pseudovirus HIV-001428-2.42 (HIV-1)
[27] = biological target: HIV-1 Env of pseudovirus Ce1176_A3 (HIV-1)
[28] = biological target: HIV-1 Env of pseudovirus REJO4541.67 (HIV-1)

VRC07 (antibody) showed an IC50 [1] of 0.152 µg/mL, an IC80 [1] of 0.625 µg/mL and an IC50 [2] of 0.19 µg/mL. It also gave an IC80 [2] of 0.912 µg/mL, an IC50 [3] of 0.017 µg/mL and an IC80 [3] of 0.057 µg/mL. The IC50 [4] was 0.05 µg/mL, the IC80 [4] was 0.222 µg/mL and the IC50 [5] was 0.12 µg/mL. The IC80 [5] was 0.425 µg/mL, the IC50 [6] was 0.06 µg/mL and the IC80 [6] was 0.129 µg/mL. For the same substance, the IC50 [7] was 0.024 µg/mL, the IC80 [7] was 0.1 µg/mL and the IC50 [8] was 0.307 µg/mL. The IC80 [8] was 1.05 µg/mL, the IC50 [9] was 2.4 µg/mL and the IC80 [9] was 12.2 µg/mL. The IC50 [10] was 0.034 µg/mL, the IC80 [10] was 0.115 µg/mL and the IC50 [11] was 0.052 µg/mL. For the same substance, the IC80 [11] was 0.204 µg/mL, the IC50 [12] was 0.5 µg/mL and the IC80 [12] was 1.86 µg/mL. For the same substance, the IC50 [13] was 0.041 µg/mL, the IC80 [13] was 0.189 µg/mL and the IC50 [14] was 0.054 µg/mL. For the same substance, the IC80 [14] was 0.175 µg/mL, the IC50 [15] was 0.169 µg/mL and the IC80 [15] was 0.517 µg/mL. For the same substance, the IC50 [16] was > 50 µg/mL, the IC80 [16] was > 50 µg/mL and the IC50 [17] was 0.133 µg/mL. It also gave an IC80 [17] of 0.401 µg/mL, an IC50 [18] of 0.307 µg/mL and an IC80 [18] of 1.27 µg/mL. For the same substance, the IC50 [19] was 0.218 µg/mL, the IC80 [19] was 0.75 µg/mL and the IC50 [20] was 0.015 µg/mL. The IC80 [20] was 0.046 µg/mL, the IC50 [21] was 0.041 µg/mL and the IC80 [21] was 0.149 µg/mL. The IC50 [22] was 0.081 µg/mL, the IC80 [22] was 0.236 µg/mL and the IC50 [23] was 0.104 µg/mL. The IC80 [23] was 0.383 µg/mL, the IC50 [24] was 0.075 µg/mL and the IC80 [24] was 0.256 µg/mL. It also gave an IC50 [25] of 0.092 µg/mL, an IC80 [25] of 0.232 µg/mL and an IC50 [26] of 0.004 µg/mL. The IC80 [26] was 0.016 µg/mL, the IC50 [27] was 0.52 µg/mL and the IC80 [27] was 2.6 µg/mL. The IC50 [28] was 0.011 µg/mL and the IC80 [28] was 0.037 µg/mL.
